Laboratory results taken from the supplement of paper PMC11780869.

Test system: Bacillus subtilis
Experiment: cleaved RNA product abundance (RNA/gDNA barcode ratio) relative to median wild-type variant (ratio to wild type); higher = more accumulation of the downstream cleavage product
Settings: cleavage site: cggR-gapA (positions -7 to +36 mutated)
Experimental: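 MPRA in B. subtilis. Mutagenized RNase Y cleavage-site regions (9% mutation rate) were inserted into a barcoded reporter mRNA (truncated aprE or tetM). Cells were grown in LB at 37°C to OD600 0.3. The cleaved RNA isoform was gel-purified and its barcodes counted; the RNA:gDNA barcode ratio was normalised to the median wild-type variant, and the median over barcodes is reported per variant. The printed sequence is the variable window only; the reporter flanks are not printed.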

[1] = experiment (reporter, strain, medium): exp 2b: truncated aprE reporter, strain BJT200
[2] = experiment (reporter, strain, medium): exp 4a: truncated aprE reporter, strain BJT201 with 2% xylose (RNase J1 expressed)
[3] = experiment (reporter, strain, medium): exp 6: tetM reporter, strain 168

Sequence | cleaved RNA product abundance [1] | cleaved RNA product abundance [2] | cleaved RNA product abundance [3]
ACAGACGAAGGAGCCGCAAAGAAGTCATTAAGGAATGAATAATCCCTCAATATAAATATCTCTCACTTATTTAAA | 0.0849 | 0.139 | –
ACAGACGAAGGAGCCGCAAAGAAGTCATTAAGGCATGAATAATCCCTCAATATAAATATCTCTCACTTATTTAAA | – | 0.102 | –
ACAGACGAAGGAGCCGCAAAGAAGTCATTAAGGGACGAATAATCCCTCAATATAAATATCTCTCACTTATTTAAA | – | 0.154 | –
ACAGACGAAGGAGCCGCAAAGAAGTCATTAAGGGATAAATAATCCCTCAATATAAATATCTCTCACTTATTTAAA | 0.195 | 0.308 | –
ACAGACGAAGGAGCCGCAAAGAAGTCATTAAGGGATGAAAAATCCCTCAATATAAATATCTCTCACTTATTTAAA | 0.173 | 0.2 | –
ACAGACGAAGGAGCCGCAAAGAAGTCATTAAGGGATGAATAAACCCTCAATATAAATATCTCTCACTTATTTAAA | – | 0.176 | –
ACAGACGAAGGAGCCGCAAAGAAGTCATTAAGGGATGAATAATCCCACAATATAAATATCTCTCACTTATTTAAA | 0.142 | 0.2 | –
ACAGACGAAGGAGCCGCAAAGAAGTCATTAAGGGATGAATAATCCCCCAATATAAATATCTCTCACTTATTTAAA | – | 0.113 | –
ACAGACGAAGGAGCCGCAAAGAAGTCATTAAGGGATGAATAATCCCTCAAAATAAATATCTCTCACTTATTTAAA | – | 0.203 | –
ACAGACGAAGGAGCCGCAAAGAAGTCATTAAGGGATGAATAATCCCTCAATATAAACATCTCTCACTTATTTAAA | – | 0.333 | –
ACAGACGAAGGAGCCGCAAAGAAGTCATTAAGGGATGAATAATCCCTCAATATAAATAACTCTCACTTATTTAAA | – | 0.249 | –
ACAGACGAAGGAGCCGCAAAGAAGTCATTAAGGGATGAATAATCCCTCAATATAAATATCTCTCACTTATTTAAA | 0.186 | 0.255 | 0.244
ACAGACGAAGGAGCCGCAAAGAAGTCATTAAGGGATGAATAATCCCTGAATATAAATATCTCTCACTTATTTAAA | – | 0.136 | –
ACAGACGAAGGAGCCGCAAAGAAGTCATTAAGGGATGAATAATCCGTCAATATAAATATCTCTCACTTATTTAAA | 0.124 | 0.173 | –
ACAGACGAAGGAGCCGCAAAGAAGTCATTAAGGGATGAATAATCCTTCAATATAAATATCTCTCACTTATTTAAA | – | 0.189 | –
ACAGACGAAGGAGCCGCAAAGAAGTCATTAAGGGATGAATAATCGCTCAATATAAATATCTCTCACTTATTTAAA | – | 0.107 | –
ACAGACGAAGGAGCCGCAAAGAAGTCATTAAGGGATGAATAATGCCTCAATATAAATATCTCTCACTTATTTAAA | – | 0.13 | –
ACAGACGAAGGAGCCGCAAAGAAGTCATTAAGGGATGATTAATCCCTCAATATAAATATCTCTCACTTATTTAAA | – | 0.217 | –
ACAGACGAAGGAGCCGCAAAGAAGTCATTAAGGGATGTATAATCCCTCAATATAAATATCTCTCACTTATTTAAA | 0.16 | – | –
ACAGACGAAGGAGCCGCAAAGAAGTCATTAAGGGATTAATAATCCCTCAATATAAATATCTCTCACTTATTTAAA | – | 0.236 | –
ACAGACGAAGGAGCCGCAAAGAAGTCATTAAGGTATGAATAATCCCTCAATATAAATATCTCTCACTTATTTAAA | 0.0941 | – | –
ACAGACGAAGGAGCCGCAAAGAAGTCATTAAGTGATGAATAATCCCTCAATATAAATATCTCTCACTTATTTAAA | – | 0.0976 | –
ACAGACGAAGGAGCCGCAAAGAAGTCATTAATGGATGAATAATCCCTCAATATAAATATCTCTCACTTATTTAAA | 0.0927 | 0.171 | –
ACAGACGAAGGAGCCGCAAAGAAGTCTTTAAGGGATGAATAATCCCTCAATATAAATATCTCTCACTTATTTAAA | – | 0.181 | –
ACAGACGAAGGAGCCGCAAAGAAGTGAATAAGGGATGAATAATCCCTCAATATAAATATCTCTCACTTATTTAAA | – | 0.296 | –
ACAGACGAAGGAGCCGCAAAGAAGTGACTAAGGGATGAATAATCCCTCAATATAAATATCTCTCACTTATTTAAA | – | 0.344 | –
ACAGACGAAGGAGCCGCAAAGAAGTGATAAAGGGATGAATAATCCCTCAATATAAATATCTCTCACTTATTTAAA | – | 0.223 | –

Sequence | cleaved RNA product abundance [1] | cleaved RNA product abundance [2] | cleaved RNA product abundance [3]
ACAGACGAAGGAGCCGCAAAGAAGTGATGAAGGGATGAATAATCCCTCAATATAAATATCTCTCACTTATTTAAA | 0.446 | – | –
ACAGACGAAGGAGCCGCAAAGAAGTGATTAAAGGATGAATAATCCCTCAATATAAATATCTCTCACTTATTTAAA | – | 0.19 | –
ACAGACGAAGGAGCCGCAAAGAAGTGATTAACGGATGAATAATCCCTCAATATAAATATCTCTCACTTATTTAAA | 0.129 | 0.0991 | –
ACAGACGAAGGAGCCGCAAAGAAGTGATTAAGAGATGAATAATCCCTCAATATAAATATCTCTCACTTATTTAAA | 0.0989 | 0.133 | –
ACAGACGAAGGAGCCGCAAAGAAGTGATTAAGCGATGAATAATCCCTCAATATAAATATCTCTCACTTATTTAAA | 0.115 | 0.131 | –
ACAGACGAAGGAGCCGCAAAGAAGTGATTAAGGAATGAATAATCCCTCAATATAAATATCTCTCACTTATTTAAA | – | 0.115 | –
ACAGACGAAGGAGCCGCAAAGAAGTGATTAAGGCATGAATAATCCCTCAATATAAATATCTCTCACTTATTTAAA | 0.11 | – | –
ACAGACGAAGGAGCCGCAAAGAAGTGATTAAGGGACGAATAATCCCTCAATATAAATATCTCTCACTTATTTAAA | – | 0.322 | –
ACAGACGAAGGAGCCGCAAAGAAGTGATTAAGGGATAAATAATCCCTCAATATAAATATCTCTCACTTATTTAAA | – | 0.246 | –
ACAGACGAAGGAGCCGCAAAGAAGTGATTAAGGGATGAAAAATCCCTCAATATAAATATCTCTCACTTATTTAAA | – | 0.399 | –
ACAGACGAAGGAGCCGCAAAGAAGTGATTAAGGGATGAATAACCCCTCAATATAAATATCTCTCACTTATTTAAA | – | 0.163 | –
ACAGACGAAGGAGCCGCAAAGAAGTGATTAAGGGATGAATAATACCTCAATATAAATATCTCTCACTTATTTAAA | 0.105 | 0.0889 | –
ACAGACGAAGGAGCCGCAAAGAAGTGATTAAGGGATGAATAATCCATCAATATAAATATCTCTCACTTATTTAAA | 0.27 | 0.257 | –
ACAGACGAAGGAGCCGCAAAGAAGTGATTAAGGGATGAATAATCCCACAATATAAATATCTCTCACTTATTTAAA | – | 0.226 | –
ACAGACGAAGGAGCCGCAAAGAAGTGATTAAGGGATGAATAATCCCGCAATATAAATATCTCTCACTTATTTAAA | – | 0.124 | –
ACAGACGAAGGAGCCGCAAAGAAGTGATTAAGGGATGAATAATCCCTAAATATAAATATCTCTCACTTATTTAAA | – | 0.388 | –
ACAGACGAAGGAGCCGCAAAGAAGTGATTAAGGGATGAATAATCCCTCAAAATAAATATCTCTCACTTATTTAAA | – | 0.258 | –
ACAGACGAAGGAGCCGCAAAGAAGTGATTAAGGGATGAATAATCCCTCAACATAAATATCTCTCACTTATTTAAA | 0.293 | – | –
ACAGACGAAGGAGCCGCAAAGAAGTGATTAAGGGATGAATAATCCCTCAATATAAAAATCTCTCACTTATTTAAA | – | 0.728 | –
ACAGACGAAGGAGCCGCAAAGAAGTGATTAAGGGATGAATAATCCCTCAATATAAATAACTCTCACTTATTTAAA | – | 0.522 | –
ACAGACGAAGGAGCCGCAAAGAAGTGATTAAGGGATGAATAATCCCTCAATATAAATATCTCTCACTTATTTAAA | 0.318 | 0.391 | 0.274
ACAGACGAAGGAGCCGCAAAGAAGTGATTAAGGGATGAATAATCCCTCACTATAAATATCTCTCACTTATTTAAA | – | 0.0759 | –
ACAGACGAAGGAGCCGCAAAGAAGTGATTAAGGGATGAATAATCCCTCTATATAAATATCTCTCACTTATTTAAA | – | 0.377 | –
ACAGACGAAGGAGCCGCAAAGAAGTGATTAAGGGATGAATAATCCCTTAATATAAATATCTCTCACTTATTTAAA | – | 0.74 | –
ACAGACGAAGGAGCCGCAAAGAAGTGATTAAGGGATGAATAATCCTTCAATATAAATATCTCTCACTTATTTAAA | 0.337 | 0.342 | –
ACAGACGAAGGAGCCGCAAAGAAGTGATTAAGGGATGAATAATCGCTCAATATAAATATCTCTCACTTATTTAAA | – | 0.0548 | –
